Experimental findings from article PMC3401278 (ACS Chemical Biology, 2012) are described below.

Test [1] concerns the target T1, E. coli His6-LpxD (Escherichia coli, UniProt P21645). Kind of test: biochemical. The class given is binding.
The target of test [2] is T1, E. coli His6-LpxD. Kind of test: Fluorescence polarization direct binding of FITC-labeled peptide to His6-LpxD. Conditions: at up to 180 μM LpxD. A general note: In fluorescence polarisation assays a small probe gives low polarisation when free and higher when bound to something large.
The target in a further test is E. coli LpxA (Escherichia coli, UniProt P0A722). Kind of test: Fluorescence polarization competition binding assay, LpxA.
The target in the next test is LpxA (Escherichia coli, UniProt P0A722). As to the kind of experiment: Continuous fluorescent acyltransferase inhibition assay. The class given is biochemical, E. coli. Conditions: pH 7.5.
For test [3], the target named is T2, E. coli His6-LpxD (UDP-3-O-(R-3-hydroxyacyl)glucosamine N-acyltransferase) (E. coli, UniProt P21645 1-341).
T2 sequence (looked up): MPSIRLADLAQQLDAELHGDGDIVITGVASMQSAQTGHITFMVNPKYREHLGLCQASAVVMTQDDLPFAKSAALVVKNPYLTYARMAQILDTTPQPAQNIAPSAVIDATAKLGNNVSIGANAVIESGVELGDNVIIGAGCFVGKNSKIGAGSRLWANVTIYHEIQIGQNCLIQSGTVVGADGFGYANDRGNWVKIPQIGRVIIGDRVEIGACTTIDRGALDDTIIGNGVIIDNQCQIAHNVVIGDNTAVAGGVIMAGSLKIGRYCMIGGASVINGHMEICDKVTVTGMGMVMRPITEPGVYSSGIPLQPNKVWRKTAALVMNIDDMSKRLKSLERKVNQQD
Kind of test: fluorescence polarisation.

Test [4] concerns the target T3, E. coli LpxA (UDP-N-acetylglucosamine acyltransferase), native (E. coli, UniProt P0A722 1-262).
T3 sequence (looked up): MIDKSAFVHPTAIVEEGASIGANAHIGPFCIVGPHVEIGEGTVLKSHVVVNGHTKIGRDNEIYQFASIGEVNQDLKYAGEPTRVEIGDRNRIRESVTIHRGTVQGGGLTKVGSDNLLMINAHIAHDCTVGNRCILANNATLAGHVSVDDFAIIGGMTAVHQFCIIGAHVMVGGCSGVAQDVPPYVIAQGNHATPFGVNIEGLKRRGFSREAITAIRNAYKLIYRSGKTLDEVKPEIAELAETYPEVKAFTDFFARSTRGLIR
As to the kind of experiment: fluorescence polarisation.

The target in test [5] is T2, E. coli His6-LpxD …. Kind of test: fluorescence polarisation. This is another data set of the same source.

Like-named read-outs stand apart in the source and are kept apart here. Where no end group is shown, it is not given here. The star is where a group is joined. FITC = O=C1OC2(c3ccc(O)cc3Oc3cc(O)ccc32)c2ccc(NC(=S)*)cc21; βAla = NCCC(=O)O

By Kd is commonly meant the constant that tells how readily two partners part at equilibrium. High values mean lower affinity, low ones higher affinity. As to `CC[C@H](C)[C@H](NC(=O)[C@@H]1CCCN1C(=O)[C@H](CC(=O)O)NC(=O)[C@H](CC(C)C)NC(=O)[C@H](CCSC)NC(=O)[C@H](Cc1c[nH]c2ccccc12)NC(=O)CNC(=O)[C@H](CO)NC(=O)[C@@H](N)CO)C(=O)N[C@@H](C)C(=O)NCC(=O)N[C@@H](CCCCN)C(=O)N[C@@H](Cc1c[nH]c2ccccc12)C(=O)N[C@@H](CO)C(=O)N[C@@H](CCCNC(=N)N)C(N)=O` [P920], at E. coli His6-LpxD [1], the dissociation constant (Kd) was above 300 µM.
As to β-alanyl-fluorescein, the “ΔmP with LpxD, fluorophore alone” value at E. coli His6-LpxD [2] was ~ 26 mP.
In the case of SENNFMLPLLPL-NH2 [RJPXD34], at E. coli LpxA, the Kd is above 300 µM. Further, the “LpxA IC50” value on LpxA was “did not inhibit”.

B1: FITC-RJPXD33 (FITC-(βA)TNLYMLPKWDIP-NH2) (peptide)
peptide: {FITC-βAla}-TNLYMLPKWDIP-NH2
SMILES: CC[C@H](C)[C@H](NC(=O)[C@H](CC(=O)O)NC(=O)[C@H](Cc1c[nH]c2ccccc12)NC(=O)[C@H](CCCCN)NC(=O)[C@@H]1CCCN1C(=O)[C@H](CC(C)C)NC(=O)[C@H](CCSC)NC(=O)[C@H](Cc1ccc(O)cc1)NC(=O)[C@H](CC(C)C)NC(=O)[C@H](CC(N)=O)NC(=O)[C@@H](NC(=O)CCNC(=S)Nc1ccc2c(c1)C(=O)OC21c2ccc(O)cc2Oc2cc(O)ccc21)[C@@H](C)O)C(=O)N1CCC[C@H]1C(N)=O
As for B1, binding in test [3] was characterised by a dissociation constant (Kd) of 0.6 ± 0.04 µM.
As for TNLYMLPKWDIP-NH2 [RJPXD33 (TNLYMLPKWDIP-NH2)], the Kd is 22 ± 2.1 µM in test [4] and 6.5 ± 0.2 µM in test [5].
As for SENNFMLPLLPL-NH2 [RJPXD34 (SENNFMLPLLPL-NH2)], in test [5], the Kd came to 31 ± 1.5 µM.
As for QHFMVPDINDMQ-NH2 [RJPXD31 (QHFMVPDINDMQ-NH2)], the Kd in test [4] worked out at 119 ± 9 µM; in test [5] it was 41 ± 3 µM.
